In IntAct's records for PubMed 7486703:

B1: Proto-oncogene tyrosine-protein kinase LCK (Mus musculus), P06240 (parent)
chain: MGCVCSSNPEDDWMENIDVCENCHYPIVPLDSKISLPIRNGSEVRDPLVTYEGSLPPASPLQDNLVIALHSYEPSHDGDLGFEKGEQLRILEQSGEWWKAQSLTTGQEGFIPFNFVAKANSLEPEPWFFKNLSRKDAERQLLAPGNTHGSFLIRESESTAGSFSLSVRDFDQNQGEVVKHYKIRNLDNGGFYISPRITFPGLHDLVRHYTNASDGLCTKLSRPCQTQKPQKPWWEDEWEVPRETLKLVERLGAGQFGEVWMGYYNGHTKVAVKSLKQGSMSPDAFLAEANLMKQLQHPRLVRLYAVVTQEPIYIITEYMENGSLVDFLKTPSGIKLNVNKLLDMAAQIAEGMAFIEEQNYIHRDLRAANILVSDTLSCKIADFGLARLIEDNEYTAREGAKFPIKWTAPEAINYGTFTIKSDVWSFGILLTEIVTHGRIPYPGMTNPEVIQNLERGYRMVRPDNCPEELYHLMMLCWKERPEDRPTFDYLRSVLDDFFTATEGQYQPQP

Variants of: B1
Conditions: with cd4_mouse Cd4, P06332
Chain of cd4_mouse Cd4, P06332 (P06332 whole entry): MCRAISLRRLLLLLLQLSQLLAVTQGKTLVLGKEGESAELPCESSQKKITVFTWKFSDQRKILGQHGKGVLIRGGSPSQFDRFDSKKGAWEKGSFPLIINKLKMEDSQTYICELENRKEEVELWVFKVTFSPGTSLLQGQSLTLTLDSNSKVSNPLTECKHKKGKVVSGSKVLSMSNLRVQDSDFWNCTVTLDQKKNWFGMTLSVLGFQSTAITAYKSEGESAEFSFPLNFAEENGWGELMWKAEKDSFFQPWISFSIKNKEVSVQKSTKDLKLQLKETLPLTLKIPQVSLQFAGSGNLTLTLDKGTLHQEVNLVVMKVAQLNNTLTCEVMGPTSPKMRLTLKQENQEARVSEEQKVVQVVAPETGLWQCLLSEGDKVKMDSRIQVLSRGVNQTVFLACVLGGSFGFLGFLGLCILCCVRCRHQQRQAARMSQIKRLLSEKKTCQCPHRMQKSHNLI

Row | effect of a mutation on the interaction | Variant
1 | decreasing interaction | C20A
